System: mineralizing bone surface and GFP labeled osteoblast surface of long bones (femur)
Assay: Automated bone histomorphometry of femur trabecula in PTH treated GFP reporter mice
Format: in vivo
Details: for AC measurements CL (common surface area of GFP marked osteoblast and AC stained label/bone surface area) / AC measurements NCL (surface area of AC stained label only/bone surface area) / AC measurements TL (total AC stained label area/bone surface area) / GFP measurements CL / GFP measurements NCL / GFP measurements TL: femur trabecula, day 7, mean
Procedure: The combination of image analysis techniques (registration, segmentation, smoothing and thresh-holding) is amenable to automating histomorphometry analysis. We have used long bones (femur) of PTH treated, skeletally mature mice (8˜9 month old) whose transgenic expression of Col3.6GFP or Col2.3GFP is expected to be uniformly low. Each study had 2 groups of treatment experiments, one that is PTH treated and one that is vehicle (0.001 N HCl containing 1 mg/ml BSA) treated. Each treated study was terminated 1 day after 2 days, 3 days, and 7 days dose of treatment has been administered. A single red fluorochrome label (AC, alizarin complexone, 30 mg/Kg IP) has been administered concurrently with the final PTH dose approximately 24 hours prior to end of each study. The experimental quantification includes GFP labeled osteoblast surface, mineralizing bone surface and total bone surface.
We need to measure both the AC stained label areas and GFP marked osteoblast areas that are commonly related to the same bone surface region. Often, the distance between the AC stained labels and the GFP marked osteoblast are not uniform, and sometimes they may be located far away. Our approach is to find the reference bone surfaces first, and then move the related AC stained labels and GFP marked osteoblast onto the reference bone surfaces using morphological transformation. FIG. 7(b) is the transformed image of FIG. 7(a). The red and green colors show, respectively, the AC stained labels and the GFP marked osteoblast on the bone surface. The yellow color is introduced to represent the common areas of AC stained labels and GFP marked osteoblast. From this projected image, we are able to calculate the ratios of the AC stained labels and GFP marked osteoblast of interest.
Here PTH treated and vehicle treated studies use poBCol3.6GFP-Tpz and pOBCol2.3GFP-Emd, respectively, where the former is control and the latter is test. The measurement follows the bone volume measurement guideline presented in [Parfitt et al., 1987]. In Table 3, the following notations are used and each measurement is the percentage of 2D perimeter measurement over the total 2D bone surface area (Red=AC measurements, Cyan=GFP measurements).
TL=total AC stained label area/bone surface area; CL=common surface area of the GFP marked osteoblast and AC stained label/bone surface area; NCL=surface area of the AC stained label only/bone surface area; TG=total surface area of the green GFP marked osteoblast/bone surface area; GL=common surface area of the GFP marked osteoblast and AC stained label/bone surface area; NGL=surface area of the GFP marked osteoblast only/bone surface area.

B1: PTH: PTH given to skeletally mature transgenic GFP reporter mice for 2, 3 or 7 days; anticipated bone-forming effect (peptide, UniProt P01270 32-115, looked up)
Parathyroid hormone: SVSEIQLMHNLGKHLNSMERVEWLRKKLQDVHNFVALGAPLAPRDAGSQRPRKKEDNVLVESHEKSLGEADKADVNVLTKAKSQ
modifications: Parathyroid hormone
- AC measurements CL (common surface area of GFP marked osteoblast and AC stained label/bone surface area) (Col 2.3-Emd mice): 3.82%
- AC measurements NCL (surface area of AC stained label only/bone surface area) (Col 2.3-Emd mice): 12.65%
- AC measurements TL (total AC stained label area/bone surface area) (Col 2.3-Emd mice): 16.48%
- GFP measurements CL (Col 2.3-Emd mice): 3.82%
- GFP measurements NCL (Col 2.3-Emd mice): 8.00%
- GFP measurements TL (Col 2.3-Emd mice): 11.83%
- AC measurements CL (common surface area of GFP marked osteoblast and AC stained label/bone surface area) (Col 3.6-Tpz mice): 5.47%
- AC measurements NCL (surface area of AC stained label only/bone surface area) (Col 3.6-Tpz mice): 25.48%
- AC measurements TL (total AC stained label area/bone surface area) (Col 3.6-Tpz mice): 31.23%
- GFP measurements CL (Col 3.6-Tpz mice): 5.74%
- GFP measurements NCL (Col 3.6-Tpz mice): 4.24%
- GFP measurements TL (Col 3.6-Tpz mice): 9.99%
- calcified bone areas (TL), PTH treated case compared with vehicle treated case (day 7, in words): more calcified bone areas (TL)
- number of GFP marked osteoblast (TG), PTH treated case compared with vehicle treated case (day 7, in words): more
